Assay results taken from article PMC9487866 (Immunity, 2022).

Biological target: Pfs48/45-6C wild type (Plasmodium falciparum 3D7, UniProt Q8I6T1)
Assay: BLI
Conditions: both partners purified

Pfs48/45-6C wild type, sequence (Q8I6T1 291-428): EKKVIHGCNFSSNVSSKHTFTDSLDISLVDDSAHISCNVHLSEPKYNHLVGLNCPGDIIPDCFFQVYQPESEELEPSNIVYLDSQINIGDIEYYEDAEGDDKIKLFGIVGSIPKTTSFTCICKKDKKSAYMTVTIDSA

B1: TB31F Fab (Fab, V domains shown)
VH: EVQLVQSGGGLVQPGGSLRLSCAASGFTFNNYWMSWVRQAPGKGLEWVSSISNIGGTIYYPDSVKGRFTISRDNSKNTLYLQMNSLRAEDTAVYYCTRDLRMSDYFDYWGQGTMVTVSS
VL: NFMLTQPHSVSESPGKTVTISCTRSTGNIGSNYVSWYQQRPGSSPTTVIYRDDQRPSGVPDRFSGSIDRSSNSASLTISGLKTEDEADYYCHSYSTGMYIFGGGTKLTVL
Kd: 3.1 nM
